According to the supplement of paper PMC10126150:
± gives the standard deviation of the averaged measurements.

tested on: ATP; test: switch fluorescence ratio, 500 uM ATP over buffer (Cy3 cluster intensity, sum of 5 cycles each) (fold (ratio)); higher = stronger signal-on switching upon ATP binding; sequences stand for … in TCGTCGGCAGCGTCAGATGTGTATAAGAGACAGTTTTTTTTTTTTTTTTTTTTTTTTT…TC; conditions: aptamer strand: ATP DNA aptamer (quencher-CACCTGGGGGAGTATTGCGGAGGAAGG + anchor), 100 nM annealed; ATP concentration: 500 uM
In short: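 Values give the fluorescence ratio for each switch-domain sequence, averaged from per-cluster ratios of summed target-cycle to summed buffer-cycle Cy3 intensity. The Cy3-labelled switching-strand clusters sat on a modified Illumina MiSeq flow-cell, were annealed to 100 nM quencher-labelled ATP aptamer, and were imaged in selection buffer, then after 15 min with 500 uM ATP at 22 °C. Five cycles ran with NaOH stripping and re-annealing between them, and clusters outside 100-1000 RFU were excluded.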
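Further: ATP exposure 15 min at 22 °C before imaging.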

Sequence | switch fluorescence ratio
TGTGGAAGTT | 0.9686 ± 0.0021
TGTGGACCAC | 1.04 ± 0.038
TGTGGAGCAT | 1.29 ± 0.071
TGTGGATGTC | 0.977 ± 0.038
TGTGGCAATT | 1.07 ± 0.037
TGTGGCATTA | 0.992 ± 0.023
TGTGGCGTAT | 1.011 ± 0.0014
TGTGGGAATT | 1.01 ± 0.049
TGTGGGATGT | 0.9704 ± 0.0039
TGTGGGCAAT | 1.56 ± 0.77
TGTGGGCAGT | 1.02 ± 0.03
TGTGGGCGGA | 1.001 ± 0.0079
TGTGGGGATT | 1.02 ± 0.032
TGTGGGGCGG | 1.01 ± 0.051
TGTGGGGGCA | 0.9953 ± 0.0057
TGTGGGGGCG | 1.01 ± 0.017
TGTGGGGGGT | 0.992 ± 0.027
TGTGGGTTCC | 1.06 ± 0.11
TGTGGTAGGT | 1.01 ± 0.057
TGTGGTTGGT | 1.01 ± 0.032
TGTGGTTTTG | 0.9586 ± 0.0042
TGTGTAAGAC | 1.16 ± 0.022
TGTGTATCGG | 0.958 ± 0.034
TGTGTATGGT | 1.01 ± 0.022
TGTGTATTGG | 1 ± 0.045

Sequence | switch fluorescence ratio
TGTGTATTTT | 0.992 ± 0.028
TGTGTCAGTG | 1.01 ± 0.081
TGTGTGAAAA | 1 ± 0.032
TGTGTGGCGC | 1.02 ± 0.032
TGTGTGGGGA | 1.01 ± 0.027
TGTGTGGGTC | 0.991 ± 0.028
TGTGTGTGAA | 0.996 ± 0.035
TGTGTGTGGG | 1.03 ± 0.012
TGTGTTCCCT | 0.982 ± 0.028
TGTGTTCCTT | 1 ± 0.018
TGTGTTTGTT | 0.998 ± 0.017
TGTTAAAATT | 0.969 ± 0.063
TGTTAAGGAA | 1.02 ± 0.029
TGTTAATAAC | 1 ± 0.052
TGTTAATATT | 0.989 ± 0.018
TGTTAATGGT | 0.994 ± 0.025
TGTTAATGTG | 1.004 ± 0.0038
TGTTAATTGA | 1.01 ± 0.015
TGTTACCTGA | 1.058 ± 0.01
TGTTACTCGT | 1.03 ± 0.0012
TGTTAGAACG | 1.02 ± 0.015
TGTTAGATGA | 0.976 ± 0.013
TGTTAGATTT | 1.05 ± 0.19
TGTTAGGGGC | 0.98 ± 0.046
TGTTAGTCTT | 0.969 ± 0.057

Sequence | switch fluorescence ratio
TGTTAGTTTT | 0.981 ± 0.013
TGTTATATTG | 1 ± 0.035
TGTTCCAATA | 1.03 ± 0.024
TGTTCCGACT | 1.05 ± 0.051
TGTTCCGCCC | 2.012 ± 0.0024
TGTTCCGGGA | 1.04 ± 0.023
TGTTCCTTTT | 1.03 ± 0.023
TGTTCGGTGT | 1.008 ± 0.0049
TGTTCTAGTT | 1.01 ± 0.015
TGTTCTTATA | 0.993 ± 0.026
TGTTGAAATT | 1.03 ± 0.077
TGTTGAAGGG | 1.01 ± 0.014
TGTTGAGGCG | 0.981 ± 0.015
TGTTGAGTTT | 0.994 ± 0.027
TGTTGATCAG | 0.982 ± 0.03
TGTTGCAGTT | 1.03 ± 0.02
TGTTGCCAAT | 1.01 ± 0.029
TGTTGCGCTT | 1.033 ± 0.007
TGTTGCGGGG | 0.995 ± 0.038
TGTTGCGTTA | 0.985 ± 0.021
TGTTGCTGGA | 1 ± 0.03
TGTTGGACGG | 1.07 ± 0.037
TGTTGGACGT | 1.036 ± 0.0024
TGTTGGAGAG | 1.02 ± 0.02
TGTTGGAGGG | 1.04 ± 0.027

Sequence | switch fluorescence ratio
TGTTGGAGGT | 1.02 ± 0.045
TGTTGGGGAA | 0.9676 ± 0.0074
TGTTGTATGT | 0.994 ± 0.015
TGTTGTCGGT | 0.988 ± 0.063
TGTTGTGTGG | 1.02 ± 0.027
TGTTGTGTGT | 0.985 ± 0.028
TGTTGTTATC | 0.974 ± 0.038
TGTTGTTGGG | 0.9946 ± 0.0087
TGTTGTTTGA | 0.991 ± 0.016
TGTTTAAAAA | 0.987 ± 0.025
TGTTTAAACG | 1.025 ± 0.005
TGTTTAATTC | 1.3 ± 0.39
TGTTTAATTG | 0.97673 ± 0.0004
TGTTTAGTTT | 1.01 ± 0.033
TGTTTATAAT | 0.99 ± 0.013
TGTTTATTTC | 1.03 ± 0.08
TGTTTATTTG | 0.965 ± 0.017
TGTTTCAAGT | 0.973 ± 0.064
TGTTTCGTGG | 0.971 ± 0.02
TGTTTCTAGG | 0.979 ± 0.029
TGTTTCTGGT | 0.969 ± 0.038
TGTTTGGGAA | 1 ± 0.038
TGTTTGGGTG | 1.08 ± 0.11
TGTTTGGTC | 0.997 ± 0.013
TGTTTGTGAT | 1.003 ± 0.0098
